Source: publication PMC3156282 (Bioorganic & medicinal chemistry letters, 2011)
Numbered stars: 1 amine (or outer) side, 2 acyl side, 3 side chain; on linkers, the order of the positions; unused ones are H or OH. Square brackets hold non-standard residues; d marks the D form. Side chains are listed from the residue outwards. 4‑DMNA = 4-N,N-dimethylamino-1,8-naphthalimido-alanine, CN(C)c1ccc2c3c(cccc13)C(=O)N(C[C@H](N[*:1])C(=O)[*:2])C2=O; 4‑DMN = 4-DMN: an environment-sensitive fluorophore; 9‑Å linker = not defined here

Biological target: Cdc42 (UniProt P60953 1-191)
Sequence (P60953 whole entry): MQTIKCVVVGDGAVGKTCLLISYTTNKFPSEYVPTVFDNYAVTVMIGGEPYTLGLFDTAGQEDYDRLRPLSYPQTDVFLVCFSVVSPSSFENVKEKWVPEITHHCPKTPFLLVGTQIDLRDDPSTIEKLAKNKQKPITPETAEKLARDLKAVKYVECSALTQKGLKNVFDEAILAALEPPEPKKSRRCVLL
Assay: other fluorescence titration

| Kd [nM] | Binder |
| --- | --- |
| 341 ± 22 | GB1-KKKISKADIGAPSGFKHVSHVGWDPQNGFDVNNLDPDLRSLC([9‑Å linker-4‑DMN])SRAGIS-His6 (domain or fragment, UniProt P42768 230-277, looked up, not fully specified; reading uncertain) [4-DMN sensor 3 (GB1-WASP(230–277)-His6, Phe271Cys, Cys271 labeled with 4-DMN through a 9-Å linker)] |
| 385 ± 9 | GB1-KKKISKADIGAPSGFKHVSHVGWDPQNGFDVNNLDPDLRCL[4‑DMNA]SRAGIS-His6 (domain or fragment) |
